Blank lines part the entries; values can stand above or below the binder they belong to.
Key:
[1] = molecular target: T1, LgBiT-TEAD1-Myc (TEAD1 aa 194-411), mutant, P28347-1; experiment: NanoBiT assay (split-luciferase biosensor) in lysates of transfected HEK293T cells; conditions: chain shown with the change; 48 h after transfection; equal amounts of each biosensor plasmid; parent: est. 1300; read off a plot
T1 chain: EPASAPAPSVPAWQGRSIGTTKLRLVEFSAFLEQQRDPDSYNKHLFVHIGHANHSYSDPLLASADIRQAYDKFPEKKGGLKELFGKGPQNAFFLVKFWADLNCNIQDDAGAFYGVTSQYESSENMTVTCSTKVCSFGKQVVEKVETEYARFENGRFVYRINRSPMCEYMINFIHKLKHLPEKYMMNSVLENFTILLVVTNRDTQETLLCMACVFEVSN

[2] = molecular target: T2, LgBiT-TEAD-His fusion protein (TEAD1 aa 194-411), mutant, P28347-1; experiment: NanoBiT assay (split-luciferase biosensor) with purified His-tagged fusion proteins in vitro; conditions: chain shown with the change; 100 ng of each construct; mixed and incubated for 5 min before substrate; parent: est. 59; read off a plot
T2 chain: T1 chain

- response (fold over LgBiT-TEAD1 alone) [1]: 19
B1: m5; m2 TAZ:W43A; TAZ:K46A; TAZ:L48A; TAZ:S51A; TAZ:F52A; TAZ:F53A; TEAD1:E255A; TEAD1:V257A; TEAD1:I262A (protein)
chain: PGQQVIHVTQDLDTDLEALFNSVMNPKPSSARKAIAPEAAAKEPDSGSHSRQSSTDSSGGHPGPRLAGGAQHVRSHSSPASLQLGTGAGAAGSPAQQHAHLRQQSYD

- response (fold over LgBiT-TEAD1 alone) [2]: 12
B2: m17; m14 TAZ:W43A; TAZ:K46A; TAZ:L48A; TAZ:S51A; TAZ:F52A; TAZ:F53A; TEAD1:E255A; TEAD1:V257A; TEAD1:I262A (protein)
chain: B1 chain

Reference: PMC6826516
